± gives the standard deviation of the averaged measurements.

In the supplement of paper PMC10471632, “Protein engineering and iterative multimodule optimization for vitamin B6 production in Escherichia coli” (Nature Communications, 2023) one finds pyridoxine titer data, which are given here for 106 variants.

First the molecules themselves.
B1: library; numbered along this chain (parent)
chain: MAELLLGVNIDHIATLRNARGTAYPDPVQAAFIAEQAGADGITVHLREDRRHITDRDVRILRQTLDTRMNLEMAVTEEMLAIAVETKPHFCCLVPEKRQEVTTEGGLDVAGQRDKMRDACKRLADAGIQVSLFIDADEEQIKAAAEVGAPFIEIHTGCYADAKTDAEQAQELARIAKAATFAASLGLKVNAGHGLTYHNVKAIAAIPEMHELNIGHAIIGRAVMTGLKDAVAEMKRLMLEARG

In this data set the parent is B1. As to the kind of experiment: pyridoxine titer in culture supernatant of strain expressing the PdxJ variant; higher = more PN produced (higher in vivo pathway activity of the PdxJ variant). Conditions: host strain: E. coli LL006; 48 h; temperature: 37 °C; FM1.4. The procedure:
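Rosetta-designed single to quadruple mutants of E. coli PdxJ (PNP synthase) were expressed from pRSFDuet-1 in the engineered chassis E. coli LL006 (MG1655 ΔpdxH::pdxST, pta::Eme_pdxP). Strains were grown in 24 deep-well plates in 2 mL FM1.4 glycerol medium at 37 °C and 800 rpm for 48 h. Extracellular pyridoxine (PN) titer was quantified by HPLC with fluorescence detection; two biological replicates, with the WT pdxJ strain (LL137, about 0.5 mg/L) as control.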
In the case of I10L H155I I218L, the pyridoxine titer was found to be 0.28 ± 0.028 mg/L.

On to L195I T196C, for which the pyridoxine titer was determined as 0.41 ± 0.014 mg/L. In the case of G21M T196C, the pyridoxine titer stood at 0.68 ± 0.042 mg/L. In the case of D11N, the pyridoxine titer came out at 1.88 ± 0.18 mg/L. For the variant A217V I219G, the pyridoxine titer worked out at 0.77 ± 0.11 mg/L.

For A23T E100I I219G, the pyridoxine titer was 8.72 ± 0.52 mg/L. With I10L A14I V101L the figure was 0.31 ± 0.014 mg/L; with E100I V101L T196C, 0.81 ± 0.21 mg/L; with A23T L212I, 1.09 ± 0.79 mg/L. Take A23T G194C T196M I219G: the pyridoxine titer is 6.96 ± 5.8 mg/L.

I10L T103L L212I: the pyridoxine titer came out at 0.43 ± 0.071 mg/L. With I10L T103L I218L the figure was 0.29 ± 0.057 mg/L. With T15I T196C the figure was 1.08 ± 0.071 mg/L. Then I10L V101L E104T, with 2.46 ± 2 mg/L; and A23T V44I V101L L212I, with 8.38 ± 1.2 mg/L. For the variant G7M E104T G194C I218L, the pyridoxine titer worked out at 0.955 ± 0.033 mg/L. Then G194C L195I, with 0.26 mg/L. With I10L D11C A23T the figure was 0.22 ± 0.057 mg/L. Regarding I10L V101L E104T I219M, the pyridoxine titer was found to be 0.553 ± 0.14 mg/L.

Regarding I10L V101L E104T I219C, the pyridoxine titer came out at 0.874 ± 0.68 mg/L. In the case of I10L V101L E104T I219W, the pyridoxine titer was determined as 1.66 ± 0.26 mg/L. With D11C T196C the figure was 0.43 ± 0.028 mg/L; with A19Q V44I, 0.875 ± 0.47 mg/L; with I10L E104T G194Q I218L, 1.46 ± 0.011 mg/L.

On to I10L G21D T22V E104T, for which the pyridoxine titer amounted to 2.44 ± 1.1 mg/L. With G21M T103L the figure was 0.63 ± 0.33 mg/L. A23T: the pyridoxine titer was 0.981 ± 0.014 mg/L. A23T V44I T196V L212I: the pyridoxine titer turned out to be 1.53 ± 0.17 mg/L. Then T15I, with 0.373 ± 0.14 mg/L. On to V101L T103L L212I, for which the pyridoxine titer came to 0.81 ± 0.014 mg/L. With I13V I154L T196C the figure was 0.52 ± 0.014 mg/L; with I10L T103L E104T, 8.08 ± 0.54 mg/L; with I13V A217V, 1.81 ± 0.057 mg/L.

Take I10L V101L E104T T196V: the pyridoxine titer worked out at 6.81 ± 0.15 mg/L.

On to I10L T196C, for which the pyridoxine titer stood at 0.61 ± 0.028 mg/L.

Take I10L A217V: the pyridoxine titer was found to be 0.48 ± 0.028 mg/L. On to I10L A23T E104T G194Q, for which the pyridoxine titer came out at 0.545 ± 0.21 mg/L. With E104T G194C I218L the figure was 9.71 ± 0.22 mg/L; with E104T A217V, 1.12 ± 0.014 mg/L. On to I13V E100I E104T T196C, for which the pyridoxine titer was 1.25 ± 0.031 mg/L. Take I10L A23T E100I: the pyridoxine titer turned out to be 4.81 ± 0.11 mg/L. I13V T15V L212I: the pyridoxine titer is 0.41 ± 0.13 mg/L. With T15I A23T, the pyridoxine titer amounted to 0.3 ± 0.014 mg/L. With E104T I219G the figure was 2.75 ± 3.3 mg/L. For the variant I10L T22V A23T E100I, the pyridoxine titer is 1.17 ± 0.23 mg/L. With I13V E100W E104T L212I the figure was 0.293 ± 0.15 mg/L; with G7L I218L, 0.76 mg/L; with A23T T196W L212I, 1.71 ± 0.54 mg/L. With G194C T196V N213I I218L the figure was 2.28 ± 1 mg/L.

Consider A19Q G21M E100I, for which the pyridoxine titer is 0.47 ± 0.23 mg/L. I218V: the pyridoxine titer stood at 0.374 ± 0.063 mg/L. Then Y24I E100I, with 0.81 ± 0.028 mg/L; and I10L I218L, with 2.4 ± 0.35 mg/L. For I13V T103L E104T T196C, the pyridoxine titer was found to be 0.233 ± 0.009 mg/L.

Take E100I V101L: the pyridoxine titer turned out to be 2.12 ± 0.11 mg/L. T15C A19Q V44I: the pyridoxine titer came to 0.48 ± 0.057 mg/L. In the case of E100M V101L T196C, the pyridoxine titer is 2.12 ± 0.38 mg/L. I13V H155I L212I: the pyridoxine titer was found to be 0.81 ± 0.27 mg/L. Take Y24I: the pyridoxine titer stood at 0.0833 ± 0.01 mg/L. I10L A19L A23T: the pyridoxine titer amounted to 0.2 ± 0.028 mg/L. With L212I, the pyridoxine titer came out at 4.92 ± 3.9 mg/L. Then I13V E104T L212I, with 6.61 ± 2.6 mg/L; and T103L L212I A217V, with 0.903 ± 0.052 mg/L; and I13V E100I G194K L212I, with 0.324 ± 0.15 mg/L. For the variant I10L V101L E104T I218M, the pyridoxine titer stood at 0 mg/L. Then V44I, with 0.719 ± 0.33 mg/L; and L195G L212I, with 0.89 ± 0.014 mg/L. With T196C L212I the figure was 0.66 ± 0.014 mg/L; with I10L A23T G194C, 1.27 ± 0.028 mg/L.

As to A23Y E104T G194C I218L, the pyridoxine titer was 0.22 ± 0.013 mg/L.

Take T15I V101L T196C: the pyridoxine titer is 0.44 mg/L. For the variant I13V T103L L212I, the pyridoxine titer stood at 0.43 ± 0.18 mg/L. With A19Q G21M, the pyridoxine titer was 1.17 ± 0.38 mg/L. With I13V T196C the figure was 2.15 ± 0.18 mg/L; with T103L T196C L212I, 0.33 mg/L. For I10L E104T I218L I219W, the pyridoxine titer was determined as 0.561 ± 0.22 mg/L. As for I10L E104T I218L I219M, the pyridoxine titer turned out to be 0.32 ± 0.054 mg/L. With T103L the figure was 3.2 ± 0.14 mg/L; with V101L A217V, 0.74 ± 0.2 mg/L; with L195I, 0.848 ± 0.15 mg/L.

For A14I E104T T196C, the pyridoxine titer stood at 1.69 ± 0.75 mg/L.

In the case of I10L L212I, the pyridoxine titer was 1.64 ± 0.24 mg/L. For the variant H155I I218L, the pyridoxine titer turned out to be 0.66 ± 0.014 mg/L. With G7M T196C L212I the figure was 6.32 ± 1.8 mg/L; with A23T V44I L212I I219W, 3.27 ± 0.26 mg/L.

On to E100I V101L L212I, for which the pyridoxine titer was 0.86 ± 0.3 mg/L. Then T22V L212I, with 0.55 ± 0.13 mg/L. With H12M A14I T196C the figure was 1.49 ± 0.28 mg/L.

With I10L A23T V101L E104T, the pyridoxine titer was 0.257 ± 0.014 mg/L.

Consider T196C, for which the pyridoxine titer is 1.21 ± 0.38 mg/L.

For the variant N213I I218L, the pyridoxine titer turned out to be 1.1 ± 0.14 mg/L. With T103L L212I the figure was 3 ± 0.58 mg/L; with I13V E104T T196R L212I, 4.01 ± 0.7 mg/L; with I10L G194C I218L I219L, 1.09 ± 0.14 mg/L. With I154L I219G the figure was 1.93 mg/L; with I10L E104T I218L, 3.74 ± 0.56 mg/L. With H12M the figure was 1.79 ± 0.07 mg/L; with I10L T22V A23T, 6.93 ± 0.49 mg/L; with E104T G194C T196V I218L, 6.11 ± 7.1 mg/L. As to I10L T22V, the pyridoxine titer was determined as 6.01 ± 0.81 mg/L. With A23T I219G the figure was 0.76 ± 0.16 mg/L; with G7L I154L, 0.82 ± 0.68 mg/L; with I13V E104T T196C I219C, 0.274 ± 0.01 mg/L. With G7L T103L E104T the figure was 7.1 ± 0.35 mg/L; with I10L A23Y V101L E104T, 0.246 ± 0.0055 mg/L. In the case of I10L A19R T22V A23T, the pyridoxine titer was determined as 0.561 ± 0.17 mg/L.
